± gives the standard deviation of the averaged measurements.
test system: ATP; experiment: switch fluorescence ratio, 500 uM ATP over buffer (Cy3 cluster intensity, sum of 5 cycles each) (fold (ratio)); higher = stronger signal-on switching upon ATP binding; sequences stand for … in TCGTCGGCAGCGTCAGATGTGTATAAGAGACAGTTTTTTTTTTTTTTTTTTTTTTTTT…TC; conditions: aptamer strand: ATP DNA aptamer (quencher-CACCTGGGGGAGTATTGCGGAGGAAGG + anchor), 100 nM annealed; ATP concentration: 500 uM
Outline: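 Clusters carrying Cy3-labelled switching strands on a modified Illumina MiSeq flow-cell were annealed to 100 nM quencher-labelled ATP aptamer and imaged in selection buffer. They were imaged again after 15 min with 500 uM ATP at 22 °C, over five buffer/ATP cycles with NaOH stripping and re-annealing in between. For each cluster, the fluorescence ratio is the summed Cy3 intensity of the target cycles divided by that of the buffer cycles, averaged per switch-domain sequence. Clusters outside 100-1000 RFU were left out.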
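Further: ATP exposure 15 min at 22 °C before imaging.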

Row | Sequence | switch fluorescence ratio
1 | GGGAAAAAGG | 0.983 ± 0.029
2 | GGGAAAACCA | 1.01 ± 0.0098
3 | GGGAAAATCA | 0.999 ± 0.02
4 | GGGAAAGAAC | 1.15 ± 0.2
5 | GGGAAAGGCA | 1.015 ± 0.0076
6 | GGGAAAGTAT | 0.982 ± 0.032
7 | GGGAAATGTT | 1.06 ± 0.016
8 | GGGAAATTAG | 1 ± 0.026
9 | GGGAAATTGT | 0.997 ± 0.017
10 | GGGAACAGCA | 1.027 ± 0.0047
11 | GGGAACGATC | 1.003 ± 0.0083
12 | GGGAACGGCC | 1.054 ± 0.0036
13 | GGGAACGTTT | 0.993 ± 0.011
14 | GGGAAGCATG | 1.02 ± 0.022
15 | GGGAAGCATT | 0.989 ± 0.023
16 | GGGAAGCGCC | 0.9967 ± 0.0032
17 | GGGAAGGCGG | 1.02 ± 0.027
18 | GGGAAGTATG | 1 ± 0.057
19 | GGGAAGTCAA | 1.02 ± 0.032
20 | GGGAAGTCGG | 0.9824 ± 0.0094
21 | GGGAAGTGAG | 1.013 ± 0.006
22 | GGGAATAATA | 0.991 ± 0.023
23 | GGGAATAATG | 1.01 ± 0.0091
24 | GGGAATACGT | 1.03 ± 0.029
25 | GGGAATAGCG | 0.977 ± 0.046
26 | GGGAATCGCT | 0.973 ± 0.023

Row | Sequence | switch fluorescence ratio
27 | GGGAATGGGA | 0.997 ± 0.027
28 | GGGAATTGTT | 0.977 ± 0.014
29 | GGGACACGGC | 0.996 ± 0.059
30 | GGGACAGGCG | 0.991 ± 0.095
31 | GGGACCCAAG | 1.02 ± 0.046
32 | GGGACGCGCA | 0.984 ± 0.036
33 | GGGACGGAAA | 1.11 ± 0.16
34 | GGGACGGCGG | 1.004 ± 0.0087
35 | GGGACTATTT | 1.01 ± 0.013
36 | GGGACTGGGG | 1.02 ± 0.061
37 | GGGAGAAAAT | 1.02 ± 0.011
38 | GGGAGAATAG | 0.985 ± 0.036
39 | GGGAGAATTG | 1.01 ± 0.037
40 | GGGAGACGGT | 1.02 ± 0.068
41 | GGGAGAGCA | 0.9821 ± 0.0098
42 | GGGAGAGGTG | 0.989 ± 0.027
43 | GGGAGCCAGT | 1.05 ± 0.12
44 | GGGAGCGTTT | 0.981 ± 0.046
45 | GGGAGGAAGC | 0.99 ± 0.0049
46 | GGGAGGAAGG | 0.974 ± 0.028
47 | GGGAGGAATG | 0.989 ± 0.021
48 | GGGAGGACTT | 0.977 ± 0.029
49 | GGGAGGATCG | 0.993 ± 0.069
50 | GGGAGGATTA | 1 ± 0.031
51 | GGGAGGCGAT | 0.975 ± 0.051
52 | GGGAGGCGGT | 1.01 ± 0.019

Row | Sequence | switch fluorescence ratio
53 | GGGAGGGTGC | 1.02 ± 0.07
54 | GGGAGTGGGG | 0.989 ± 0.025
55 | GGGAGTGGGT | 0.99 ± 0.024
56 | GGGAGTGTGG | 1.001 ± 0.0062
57 | GGGAGTTGCT | 0.986 ± 0.039
58 | GGGAGTTTCG | 1.06 ± 0.095
59 | GGGATAAAGA | 1.001 ± 0.003
60 | GGGATAAAGG | 0.993 ± 0.035
61 | GGGATAAGAG | 0.973 ± 0.029
62 | GGGATAAGGC | 1.08 ± 0.014
63 | GGGATAAGGT | 0.979 ± 0.03
64 | GGGATAATTG | 0.978 ± 0.024
65 | GGGATACTAG | 1.01 ± 0.02
66 | GGGATACTTT | 1.5 ± 0.73
67 | GGGATAGAGC | 0.965 ± 0.05
68 | GGGATAGGGC | 1.04 ± 0.054
69 | GGGATAGGTT | 1.07 ± 0.12
70 | GGGATAGTTT | 1 ± 0.063
71 | GGGATATCGA | 0.975 ± 0.021
72 | GGGATATGAT | 0.9829 ± 0.0029
73 | GGGATCGAGG | 1.01 ± 0.035
74 | GGGATCGTAC | 1.07 ± 0.041
75 | GGGATCGTAT | 0.9856 ± 0.0054
76 | GGGATGGGAC | 1.043 ± 0.0081
77 | GGGATGGTGT | 0.962 ± 0.016
78 | GGGATGGTTA | 0.971 ± 0.056

Row | Sequence | switch fluorescence ratio
79 | GGGATGTAAG | 0.966 ± 0.027
80 | GGGATGTTTT | 0.991 ± 0.012
81 | GGGATTACGG | 0.9899 ± 0.0051
82 | GGGATTAGTT | 1.03 ± 0.023
83 | GGGATTATGG | 1.01 ± 0.038
84 | GGGATTCAAC | 1.018 ± 0.0085
85 | GGGATTCCTG | 0.9777 ± 0.0061
86 | GGGATTCTTA | 0.996 ± 0.021
87 | GGGATTTACG | 1.02 ± 0.019
88 | GGGATTTGTT | 0.9888 ± 0.0057
89 | GGGATTTTCT | 1.011 ± 0.0091
90 | GGGATTTTGT | 0.983 ± 0.012
91 | GGGATTTTTT | 1.06 ± 0.16
92 | GGGCAAAGTA | 0.924 ± 0.039
93 | GGGCAAGAAG | 1.021 ± 0.0073
94 | GGGCAAGCAT | 0.999 ± 0.037
95 | GGGCAAGGGC | 1.038 ± 0.01
96 | GGGCAATTGA | 1 ± 0.051
97 | GGGCACGAAG | 1 ± 0.013
98 | GGGCACGCTG | 1.033 ± 0.0053
99 | GGGCAGAGGA | 1.0929 ± 0.00017
100 | GGGCATGATG | 1.02 ± 0.055
101 | GGGCATGGGC | 0.9965 ± 0.0015
102 | GGGCATGTAG | 0.996 ± 0.058
103 | GGGCATTGTG | 1.03 ± 0.056
104 | GGGCATTTTG | 0.998 ± 0.015

Row | Sequence | switch fluorescence ratio
105 | GGGCATTTTT | 0.9824 ± 0.0041
106 | GGGCCAGTGA | 1.03 ± 0.039
107 | GGGCCATGTA | 1 ± 0.034
108 | GGGCCCCTTG | 1.01 ± 0.073
109 | GGGCCCTAAT | 0.982 ± 0.03
110 | GGGCCGATCA | 0.997 ± 0.036
111 | GGGCCGGGGC | 1.01 ± 0.024
112 | GGGCCGGGGG | 1 ± 0.022
113 | GGGCCGGGTT | 1.01 ± 0.021
114 | GGGCCGTGGG | 0.992 ± 0.017
115 | GGGCCTATAG | 0.9859 ± 0.0085
116 | GGGCCTGGTG | 1.42 ± 0.013
117 | GGGCCTGTGA | 1 ± 0.03
118 | GGGCGAAGCG | 0.986 ± 0.035
119 | GGGCGCAACG | 1.05 ± 0.073
120 | GGGCGCGAAC | 1.06 ± 0.018
121 | GGGCGCTTTC | 1.03 ± 0.028
122 | GGGCGGCACG | 0.966 ± 0.054
123 | GGGCGGCCTA | 0.999 ± 0.021
124 | GGGCGGCCTT | 1.03 ± 0.068
125 | GGGCGGGGGG | 1.01 ± 0.03
126 | GGGCGGGGTA | 1.01 ± 0.027
127 | GGGCGGTGTC | 1.01 ± 0.042
128 | GGGCGTTGGG | 0.948 ± 0.059
129 | GGGCGTTTGA | 1 ± 0.046
130 | GGGCTAGGGT | 1.02 ± 0.023

Row | Sequence | switch fluorescence ratio
131 | GGGCTATATT | 0.9904 ± 0.0084
132 | GGGCTATTAG | 0.98 ± 0.013
133 | GGGCTCAGAA | 1.03 ± 0.028
134 | GGGCTGGCTG | 0.998 ± 0.062
135 | GGGCTGGGTC | 0.98 ± 0.038
136 | GGGCTTAAAA | 0.98424 ± 0.00098
137 | GGGCTTGTAA | 0.964 ± 0.012
138 | GGGCTTTAAG | 1.03 ± 0.04
139 | GGGCTTTAAT | 0.992 ± 0.015
140 | GGGCTTTCTG | 0.98 ± 0.05
141 | GGGCTTTGGG | 1.008 ± 0.0068
142 | GGGGAAAACG | 0.989 ± 0.015
143 | GGGGAAAAGC | 1.04 ± 0.014
144 | GGGGAAACAG | 1 ± 0.018
145 | GGGGAAACGT | 1.12 ± 0.035
146 | GGGGAAATCC | 1.02 ± 0.046
147 | GGGGAAATTT | 1.02 ± 0.028
148 | GGGGAAGAAA | 0.995 ± 0.027
149 | GGGGAAGCGC | 1.01 ± 0.068
150 | GGGGAAGGG | 1.12 ± 0.24
151 | GGGGAAGGGA | 1 ± 0.031
152 | GGGGAAGGGC | 1.02 ± 0.053
153 | GGGGAAGTGC | 1.01 ± 0.055

— the supplement of paper PMC10126150
